Biological target: T1, human proBDNF protein (prokaryotically expressed, Example 1) (human, UniProt P23560 19-247)
T1 construct: Vector-derived residues or tags are not described; also called human proBDNF antigen; recombinant human proBDNF
T1 sequence (looked up): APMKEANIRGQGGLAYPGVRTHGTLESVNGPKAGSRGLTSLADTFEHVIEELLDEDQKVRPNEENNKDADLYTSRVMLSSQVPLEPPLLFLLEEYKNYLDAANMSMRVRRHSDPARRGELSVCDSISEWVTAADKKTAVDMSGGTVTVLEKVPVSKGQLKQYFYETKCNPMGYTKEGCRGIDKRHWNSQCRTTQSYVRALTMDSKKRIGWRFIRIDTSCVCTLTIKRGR
Assay: SPR, Biacore T200; human proBDNF coated directly on the chip (~500 RU); 2B11 injected at 10-160 nM, 25 C; 1:1 Langmuir model
Description: Binding affinity of 2B11 against recombinant human proBDNF was measured by Surface Plasmon resonance (SPR) using Biacore T200™. 1×HBS-EP+ buffer was used as running buffer. Recombinant human proBDNF was directly coated on CMS biosensor chip to achieve approximately 500 response units (RU). For kinetics measurements, two-fold serial dilutions (10 nM to 160 nM) were injected at 25° C. with a flow rate of 30u1/min. Association rate (Kₐ) and dissociation rate (Kd) were calculated using a simple one to one Langmuir binding model (BIAcore Evaluation software version 3.2). The equilibrium dissociation constant (kD) was calculated as the ratio Kd/Kₐ. The binding affinity of 2B11 to human proBDNF is reported below: […]

B1: anti-proBDNF monoclonal antibody 2B11 (antibody, human IgG1, kappa, V domains shown)
VH: EVKVVESGGGLVQPGGSLRLSCATSGFTFTDYYMSWVRQPPGKALEWLGFIRNKANGYTTEYSSSVKGRFTISRDNSQSILYLQMNTLRAEDSATYYCAITMDYWGQGTSVTVSS
VL: DIQMTQSPASLSASVGETVTITCRASGNIHNYLAWYQKKQGKSPHLLVYNAQTLADGVPSRFSGSASGTQYSLKIDSLQPEDFGSYYCQHFWSTPFTFGSGTKLEIKR
notes: also called murine monoclonal antibody 2B11; antibody secreted from clone 2B11
B1 gave a Kd of 4.04 nM, a koff of 0.00116 s⁻¹ and a kon of 288000 M⁻¹ s⁻¹.

From US20210017264A1 (SHANGHAI YILE BIOTECHNOLOGY, published 2021)
